We go through one substance from doi:10.1101/2025.11.17.688760.

The data set concerns P68135. The data set can be described thus: TIRF microscopy of single actin filaments. The settings on record: other: TIRF microscopy of single actin filaments (depolymerization).

For alpha skeletal actin from rabbit muscle, the “barbed end depolymerization rate (effective off-rate of ADP and ADP.Pi subunits)” value is 3.4 ± 0.7 sub/s (mean ± SD).
